In PMC11905679:

Key:
α-chymotrypsin (bovine) [1] = target: α-chymotrypsin (bovine)
α-chymotrypsin (bovine) [2] = experiment: enzyme inhibition kinetics
α-chymotrypsin (bovine) [3] = target: α-chymotrypsin (bovine); remark: listed apart in the source
α-chymotrypsin (bovine) [4] = target: α-chymotrypsin (bovine); remark: listed apart in the source

Substance	stoichiometry of inhibition (SI), residual chymotrypsin activity against the molar ratio [I]/[E] (α-chymotrypsin (bovine) [1])	Ki (α-chymotrypsin (bovine) [2]) [µM]	inhibition rate of α-chymotrypsin enzyme activity at 200 nM serpin (α-chymotrypsin (bovine) [3]) [%]	k3, rate constant of the irreversible inhibition of α-chymotrypsin (BTEE hydrolysis, 256 nm) (α-chymotrypsin (bovine) [4]) [s⁻¹]
Trichinella pseudospiralis serine protease inhibitor (Tp-serpin) (natural protein)	1.19	0.0479	> 80	0.00235
Trichinella spiralis serine protease inhibitor (Ts-serpin) (natural protein)	1.21	0.0492	> 80	0.00247
